What is called Kd is the equilibrium constant for the complex coming apart.

Experiment [1] deals with T1, natural human IL-12 receptor on IL-12R positive human cells (human, UniProt P42701 24-662).
T1 construct: whole, on cells; IL-12 sees up to 3 classes of sites on these cells; also called natural IL-12R
The experiment is described as follows: steady state 125I-IL-12 binding to YT cells, Scatchard, site 2 of 2.

In experiment [2] the target is T1, natural human IL-12 receptor on IL-12R …. The experiment is described as follows: steady state 125I-IL-12 binding to K6 cells, Scatchard, site 2 of 3.
Experiment [3] has the same target. As to the kind of experiment: steady state 125I-IL-12 binding to K6 cells, Scatchard, site 3 of 3.
For experiment [4] the target is unchanged. The experiment is described as follows: steady state 125I-IL-12 binding to YT cells, Scatchard, site 1 of 2.
Experiment [5] shares this target. The experiment is described as follows: steady state 125I-IL-12 binding to PHA-PBMC (5-7 days), Scatchard, site 2 of 3.
The target is the same in experiment [6]. The experiment is described as follows: steady state 125I-IL-12 binding to Kit-225 cells, Scatchard, site 2 of 3.
The target is the same in experiment [7]. As to the kind of experiment: steady state 125I-IL-12 binding to Kit-225 cells, Scatchard, site 1 of 3.
Experiment [8] concerns the target T2, human IL-12 receptor subunit stably expressed on murine CTLL cells (human).
T2 construct: CTLL transfectants express only receptor subunit monomers; also called CTLL transfectant; CTLL cell transfectant
As to the kind of experiment: IL-12 binding to murine CTLL cells stably expressing the IL-12 receptor subunit.

In experiment [9] the target is T3, recombinant human IL-12 receptor (clone No. 5, SEQ ID NO:2) expressed in COS cells (human).
T3 construct: 662 amino acid precursor; signal peptide cleavage is only predicted (after Gln20, Ala23 or Cys24); On COS cells present as monomers and disulfide-bonded dimers/oligomers; also called rIL-12R; human rIL-12R
As to the kind of experiment: steady state binding of 125I-IL-12 to COS cells expressing rIL-12R, Scatchard (Figure 4A).

Experiment [10] addresses T1, natural human IL-12 receptor on IL-12R …. As to the kind of experiment: steady state 125I-IL-12 binding to K6 cells, Scatchard, site 1 of 3.
Experiment [11] has the same target. As to the kind of experiment: steady state 125I-IL-12 binding to Kit-225 cells, Scatchard, site 3 of 3.
The target is the same in experiment [12]. As to the kind of experiment: steady state 125I-IL-12 binding to PHA-PBMC (5-7 days), Scatchard, site 1 of 3.
The target of experiment [13] is T4, detergent solubilized IL-12R from IL-12R positive human cells (human, UniProt P42701 24-662).
T4 construct: Whole natural receptor protein in detergent extract, not a truncated soluble form; also called soluble IL-12R; approximately 90 kDa protein
The experiment is described as follows: steady state binding of 125I-IL-12 to IL-12R immunoprecipitated by immobilized 2-4E6 from detergent extract of K6 cells, Scatchard.

For experiment [14], the target named is T1, natural human IL-12 receptor on IL-12R …. The experiment is described as follows: steady state 125I-IL-12 binding to PHA-PBMC (5-7 days), Scatchard, site 3 of 3.
The target in experiment [15] is T3, recombinant human IL-12 receptor (clone …). The experiment is described as follows: equilibrium binding of labelled human IL-12 to COS cells expressing clone 5, Scatchard, single site (Figure 19A).

B1: Recombinant human IL-12 (ligand)
chain 1: RNLPVATPDPGMFPCLHHSQNLLRAVSNMLQKARQTLEFYPCTSEEIDHEDITKDKTSTVEACLPLELTKNESCLNSRETSFITNGSCLASRKTSFMMALCLSSIYEDLKMYQVEFKTMNAKLLMDPKRQIFLDQNMLAVIDELMQALNFNSETVPQKSSLEEPDFYKTKIKLCILLHAFRIRAVTIDRVMSYLNAS
chain 2: IWELKKDVYVVELDWYPDAPGEMVVLTCDTPEEDGITWTLDQSSEVLGSGKTLTIQVKEFGDAGQYTCHKGGEVLSHSLLLLHKKEDGIWSTDILKDQKEPKNKTFLRCEAKNYSGRFTCWWLTTISTDLTFSVKSSRGSSDPQGVTCGAATLSAERVRGDNKEYEYSVECQEDSACPAAEESLPIEVMVDAVHKLKYENYTSSFFIRDIIKPDPPKNLQLKPLKNSRQVEVSWEYPDTWSTPHSYFSLTFCVQVQGKSKREKKDRVFTDKTSATVICRKNASISVRAQDRYYSSSWSEWASVPCS
modifications: ¹²⁵I label (Iodogen method) where used as tracer
notes: 75-KDa heterodimer of p35 and p40; also called HuIL-12; HUIL-12
As to B1, the Kd in experiment [1] was 109 pM; in experiment [2] it was 57 pM; in experiment [3], 2400 pM; in [4] it was 6 pM; in experiment [5] it was 84 pM; in experiment [6] it was 210 pM. For the same molecule, the Kd in experiment [7] was 23 pM; in experiment [8], ≥ 50000 pM; in experiment [9] it was 2000 to 6000 pM; in [10], 16 pM; in experiment [11], 2360 pM; in experiment [12] it was 18 pM. Moreover, the Kd in experiment [13] is 188 pM; in experiment [14] it was 1800 pM; in experiment [15], 3400 pM.
